Values quoted from earlier work as cited in paper PMC10889394.

Columns and labels:
TIMP-2 (Homo sapiens) = TIMP-2 (Homo sapiens) (UniProt P16035)
[1] = biological target: cystatin E (Homo sapiens) (UniProt Q15828)
[2] = biological target: recombinant hirudin variant 1 (Hirudo medicinalis) (UniProt P01050)
[3] = biological target: SFTI-1 (Helianthus annuus) (UniProt Q4GWU5)
[4] = biological target: SFTI-TCTR-N12N14 (synthetic construct)

Sequence of β-trypsin (P00760 149-246): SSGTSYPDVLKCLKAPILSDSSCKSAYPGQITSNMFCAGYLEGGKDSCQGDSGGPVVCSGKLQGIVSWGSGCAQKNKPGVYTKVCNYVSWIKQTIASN
Sequence of TIMP-2 (Homo sapiens) (P16035 27-220): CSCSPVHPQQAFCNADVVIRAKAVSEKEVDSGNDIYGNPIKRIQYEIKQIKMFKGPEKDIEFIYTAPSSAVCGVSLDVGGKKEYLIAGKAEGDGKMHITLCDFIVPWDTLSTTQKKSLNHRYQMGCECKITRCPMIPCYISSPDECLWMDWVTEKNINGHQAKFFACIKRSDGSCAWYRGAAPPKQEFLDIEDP
Sequence of cystatin E (Homo sapiens) (Q15828 29-149): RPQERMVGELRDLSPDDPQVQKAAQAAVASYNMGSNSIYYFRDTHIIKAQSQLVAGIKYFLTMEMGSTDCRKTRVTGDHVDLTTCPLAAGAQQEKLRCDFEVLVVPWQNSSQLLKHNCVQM

In the case of “MMP-14 catalytic domain (from UniProt P50281)”, the Ki (TIMP-2 (Homo sapiens)) is listed as 0.104 nM.
For legumain (from UniProt Q99538), the Ki [1] is listed as 0.011 nM.
For thrombin (from UniProt P00734), the Ki [2] is listed as 0.00018 nM.
For β-trypsin (from UniProt P00760), the Ki [3] is listed as 0.017 nM and the Ki [4] is listed as 0.7 nM.
